Data from US10502741B2, “Means and methods for detecting activated MALT1” (Helmholtz Zentrum München Deutsches Forschungszentrum für …, priority 2014, dated 2019).

Tests used:
active MALT1 = biological target: T1, active MALT1 (Homo sapiens, UniProt Q9UDY8); test: ELISA-based assay (MALT1 ELASA) on streptavidin-coated plates with MALT1 antibody detection; assay type: cell-based; settings: inhibitor-treated (10 μM) DLBCL cells, probe 7
T1 construct: endogenous in cells; host or cells: Jurkat T cells, primary human PBMCs and T cells, DLBCL cell lines (HBL1, TMD8, OCI-Ly3, OCI-Ly10, U2932, RIVA, BJAB, Su-DHL-4, Su-DHL-6)
T1 sequence (Q9UDY8 1-824): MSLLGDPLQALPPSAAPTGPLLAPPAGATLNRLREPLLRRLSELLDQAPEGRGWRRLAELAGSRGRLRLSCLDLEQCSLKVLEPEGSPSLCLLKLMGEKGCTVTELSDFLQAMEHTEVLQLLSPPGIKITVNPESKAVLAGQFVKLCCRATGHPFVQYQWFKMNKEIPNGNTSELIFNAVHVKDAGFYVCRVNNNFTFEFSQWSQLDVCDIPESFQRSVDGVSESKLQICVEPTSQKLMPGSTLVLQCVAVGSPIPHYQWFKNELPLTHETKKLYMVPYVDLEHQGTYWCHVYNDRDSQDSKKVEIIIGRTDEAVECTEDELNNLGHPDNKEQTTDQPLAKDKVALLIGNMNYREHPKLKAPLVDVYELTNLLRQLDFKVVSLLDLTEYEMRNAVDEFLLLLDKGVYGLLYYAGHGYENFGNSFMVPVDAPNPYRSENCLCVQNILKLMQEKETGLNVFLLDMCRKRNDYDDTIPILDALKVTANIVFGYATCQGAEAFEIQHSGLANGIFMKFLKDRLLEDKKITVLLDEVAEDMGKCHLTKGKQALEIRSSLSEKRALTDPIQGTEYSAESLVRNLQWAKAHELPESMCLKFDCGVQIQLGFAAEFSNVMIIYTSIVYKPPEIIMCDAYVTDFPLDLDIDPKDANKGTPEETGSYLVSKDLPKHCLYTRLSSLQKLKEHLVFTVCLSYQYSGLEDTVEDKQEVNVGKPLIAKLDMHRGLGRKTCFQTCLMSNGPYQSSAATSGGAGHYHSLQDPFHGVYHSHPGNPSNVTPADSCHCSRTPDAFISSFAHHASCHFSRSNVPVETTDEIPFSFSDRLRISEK
Experimental: (§1) Jurkat T cells were cultured in standard RPMI medium containing 10% FCS, 100 U/ml Penicillin/Streptomycin and 2 mM Glutamin. DNA transfection of 6 μg DNA in 8×10^6 Jurkat T cells was performed by electroporation in a GenePulser Xcell (BioRad) with a 220 Volt pulse. For siRNA experiments, Jurkat T cells were transfected with 100 nM siRNA and Atufect transfection reagent (Silence Therapeutics, Berlin). Jurkat T cells were stimulated either with 200 ng/ml PMA (phorbol 12-myristate 13-acetate) and 300 ng/ml Ionomycin (both Calbiochem) or CD3/CD28 antibody co-ligation (human CD3: 1 μg/ml; human CD28: 4 μg/ml; mouse IgG1: 2 μg/ml; mouse IgG2a: 2 μg/ml; BD Biosciences). DLBCL cell lines (HBL1, TMD8, OCI-Ly3, U2932, RIVA, BJAB, Su-DHL-4 and Su-DHL-6) were cultured in standard RPMI medium containing 20% FCS, 100 U/ml Penicillin/Streptomycin and 2 mM Glutamin. OCI-Ly10 cell line was cultured in IMDM containing 20% human serum, 100 U/ml Penicillin/Streptomycin, 2 U/ml heparine, 50 μM β-mercaptoethanol. Inhibitors 10 μM (z-VRPR-FMK, Mepazine, Thioridazine, CA-074Me) were added to the cells in media for 1 h, prior to stimulation and labeling with diagnostic MALT1 inhibitor.
Untreated DLBCL (1×10^7), primary T cells (0.25×10^7) or Jurkat T cells (0.2-1×10^7) (stimulated or not) were lysed in 300 μl co-IP buffer without protease inhibitors, centrifuged, incubated with probe 7 (concentration as depicted) for 1 h at RT, then transferred to streptavidin-coated plates (96 well, clear) and incubated o/n at 4° C. After blocking with 2% BSA in PBS-T, detection was performed by incubation with MALT1 primary antibody (1 h, RT) and HRP-coupled secondary antibody (1 h, RT). […] was determined after TMB substrate incubation in a photometer (Bio-Tek).

cathepsin B = cathepsin B (Homo sapiens, UniProt P07858); test: Labeling with diagnostic inhibitor in cell extracts (gel-based, fluorescence scan): about 30 kDa cathepsin B band; design: endogenous in cells; host or cells: Jurkat T cells; HBL1 and other DLBCL cell lines
Experimental: as §1
Jurkat T cells (1-2×10^7), primary human PBMCs or primary human T cells (0.25 or 1×10^7) were lysed in 150 μl co-IP buffer without protease inhibitors. DLBCL (3×10^7) were lysed in 250 μl buffer. After centrifugation (14000 rpm, 10 min, 4° C.), 100 μl extract (DLBCL: 200 μl) was stained with probe 5 or probe 6 (3 μM end) for 50 min at 29° C., mixed with 4× loading dye and boiled.

z-VRPR-FMK (Z N-terminal cap, FMK warhead)
effect of inhibitor on active MALT1 signal in DLBCL cells (active MALT1): strongly reduced
effect of inhibitor on the about 30 kDa cathepsin B signal labeled by probe 6 (cathepsin B; HBL1 cells, inhibitors 10 μM each): sensitive
effect of inhibitor pretreatment on the band below 34 kDa (cathepsin B) labeled by probe 5 (cathepsin B; Jurkat T cells, 10 μM inhibitor, probe 5): reduced
